Test results from the RNAGym collection of RNA variant scans (doi:10.1073/pnas.2313332121).
Variants at the floor of the assay were thinned out.

B1: TPR 5TU (parent)
chain: GGAUCUUCUCGAUCUAACAAAAAAGACAAAUCUGCCACAAAGCUUGAGAGCAUCUUCGGAUGCAGAGGCGGCAGCCUUCGGUGGCGCGAUAGCGCCAACGUUCUCAACUAUGACACGCAAAACGCGUGCUCCGUUGAAUGGAGUUUAUCAUG

Variants of: B1
Assay: polymerase ribozyme fitness, log enrichment relative to wild type (log ratio); higher = more active; in vitro selection for triplet polymerase activity
In short: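 PCR was used to build mutant libraries for each subunit of a heterodimeric triplet polymerase ribozyme, which were then transcribed. A single in vitro selection round, in triplicate, used a frozen incubation at −7 °C and recovered extended constructs by gel excision, streptavidin beads and RT-PCR. Fitness is the logarithm of genotype enrichment relative to wild-type enrichment, averaged over replicates with inverse-variance weights. The logarithm is base 2, and after Illumina sequencing only genotypes with ≥10 input reads and ≥1 read per output were kept.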

First: GGAUCUUCUCGAUGUAACAAAAAAGACAAAUCUGCCACAAAGCUUGAGAGCAUCUUCGGAUGCAGAGGCGGCAGCCUUCGGUGACGCGAUAGCGCCAACGUUCUCAACUAUGACACGCAAAACGCGUGCUCCGUUGAAUGGAGUUUAUCAUG
Second: GGAUCUUCUCGAUCUCACAAAAAAGACAAAUCUGCCACACAGCUUGAGAGCAUCUUCGGAUGCAGAGGCGGCAGCCUUCGGUAGCGCGAUAGCGCCGACGUUCUCAACUAUGACACGCAAAACGCGUGCUCCGUUGAAUGGAGUUUAUCAUG
The “polymerase ribozyme fitness (log ratio)” value of the first is lower: -2.16 for the first, -0.914 for the second.

GGAUCUUCUCGAUCUAACAAAAAAGACAAAUCUGCCACAAAGAUUGAGAGCAGCUGCGGAUGCAGAGGCGGCAGCCUUCGGUGGCGCGAUAGCGCCUACGUUCUCAACUAUGACACGCAAAACGCGUGCUCCGUUGGAUGGAGUUUAUCAUG and GGAUCUUCUCGAUGUAACAAAAAAGACAAAUCUGCCAUAAAGCUUGAGAGCAUCUUCGGAUGCAGAGUCGGCAGCCUUCUGUGGCGCGAUGGCGCCAACGUUAUCAACUAUGACACGCAAAACGCGUGCUCCGUUGAACGGAGUUUAUCAUG cannot be ordered by “polymerase ribozyme fitness (log ratio)” value: at most -4.2 for the first, at most -4.2 for the second.

GGAUCUUCUCGAUCUAACAAAAAAGACAAAUCUGCCCCAAAGUUUGAGAGCAUCUUCGGAUGCAGAGGCGGCCGCCCUCGGUGGCGCGAUAGUGCCAACGUUCUCAACUAUGACAAGCAAAACGCGUGCUCCGUGUAAUGGAGUUUAUCAUG and GGAUCUUCUCGAUCUAACAAUAAAGUCUAAUCUGCCACAAAGCUUGAGAGCAUCUUCGGAUGCAGAAGCGGCAGCCUUCGGUGGCGCAAUAGCGCCAACGUUCUCAACUAUGACACGCAAAUCGCGUGCUCCGUUGAAUGGAGUUUAUCAUG cannot be ordered by “polymerase ribozyme fitness (log ratio)” value: at most -4.2 for the first, at most -4.2 for the second.

Compared with GGAUCUUCUCGAUCUACCAAGAAAGACAAAUCUGCCACAUAGCUUGAGAGCAUCUUCGGAUGCAGAGGCGGCAGCCUUCGGUGGCUCGAUAGCGCCAACGUUCUCAACUAUGACACGCAAAUCGCGUGCUCCGUUGAAUGGAGUUUAUCAUG, GGAUCUUCUCGAUCUAACAAAAAAGACAAAUCUGCCACAAUGCUUGAGAGCAUCUUCGGAUGCAGAGGCGGCAGCCUUCGGUGGCGCGAUAGCGCCAACGUUCUCAACUAUGACACGCAAAACGCGUGCUCCUUAGAAUGGGGUUUUUCAUG is lower in “polymerase ribozyme fitness (log ratio)” value: -1.48 for the first, at most -4.2 for the second.

First: GGAUCUUCUCGAUCUAACAAAAAAGACAAAUCUGCCACAAAGCUUUAGAGCAUCUUCGGAUGCAGAGGCGCCAGCCUUCGGUGGCGCGAUAGCGUCUACGUUCUCAACUAUGACCCGCAAAACGCGUGCUCCGUUUAAUGGAGUUUAUCAUG
Second: GGAUCUUCUCGAUCUAACAAAAAAGACAAAUCUGCCACAACGCUUGAGAGCAUCUUCGGAUGCAGAGGCGGCAGCCUUCGGUGGCGCGAUAGCCCCAACGUUCUCAACUAUGACACGCAAAACGCGUGCUCCGUUGAAUGGAGUUUAUCAUG
The “polymerase ribozyme fitness (log ratio)” value of the first is lower: at most -4.2 for the first, -1.8 for the second.

First: GGAUCUUCUCCAUCUAACAAAAAAGACAAAUCUGCCACAAAGCUUGAGAGCAUCUUUGGAUGCAGAGGCGGCAGCCUUCGGUGGCGCGAUAGCGUCAACGUUCUCAACUAUGACACGCAAAACGCGAGCUCCGUUGAAUGGAGUUUAUAAUG
Second: GGAUAUUCUCGAUCUAACAAAAAAGACAAAUCUGCCACAAAGCUUGAGAGCAUCUUCGGAUGCAGAGGCGGCAGCCUUCGGUGGUGCGAUAGUGCCAACGUUCUCAACUAUGACACGCAAAACGCGUGCUCCGUUGAAUGGAGUUUAUCAUG
The “polymerase ribozyme fitness (log ratio)” value of the first is lower: at most -4.2 for the first, -1.66 for the second.

First: GGAUCUUCUCGAUCUAACAAAAAAGACAAAUCUGCCUCAAAGCUUGAGAGCAUCUUCGGAUGCAGAGGCGGCAGCCUUCGGUGGCGCGAUAGCGCCAACGUUCUCAACUAUGACACGCAAAACGCGUGCUCCGUAGAAUGGAGUUUAUCAUG
Second: GGAUCUUCUCGAUCUAACAAAAAAGACAAAUCUGCCACAAAGCUUGAGAGCGUCUUCGGAUGCAGAGUCGGCAGCCUUCGGUGGCGCGAUAGCGCCAAGGUUCUCAACUAUGACACGCAAAACGCGUGCUCCGUUGAAUGGAGUUUAUCAUG
The “polymerase ribozyme fitness (log ratio)” value of the first is higher: -2.34 for the first, at most -4.2 for the second.

First: GGAUCUUCUCGAUCUAACAAAACGGACCAAUCUGCCACAAAGCUUGAGAGCAUCUUCGGAUGUAGAAGCGGCAGCCUUCGGUGGCGCGAUAGCGCCAACGUUCUCAACUAUGACACGCAAUACGCGUGCUCCGUUGAAUGGAGAUUAUCAUG
Second: GGAUCUUCUCGAUCUAACAAAAAAGACAAAUCUGCCACAAAGCUUGAGAGCAACUUCGGAUGCAGAGGCGGCAGCCUUCGGUGGCGCGAUAGCGCCAACGUUCUCAACGAUGACACGCAAAACGCGUGCUCCGUUGAAUGGAGUUUAUCAUG
The “polymerase ribozyme fitness (log ratio)” value of the first is lower: at most -4.2 for the first, -0.777 for the second.

Going from GGAUAUUCUCGAUCUAACAAUAAAGACAAAUCUGCCACAAAGCUUGAGAACAUCUUCGGAUGCAGAGGCGGCAGCCUUCGGUGGAGCGAUAGCGCAAACGUUCUCAACUAUGACACGGAAAACGCGUGCUCCCUUGAAUGGAGUUUAUUAUG to GGAUCUUUUCGAUCUAACAAAAAAGACAAAUCUGCCACAAAGCUUGAGAGCAUCUACGGAUGCAGAGGCGGCAGCCUUCGGUGGCGCGAUAGCGCCAACGUUCUCAACUAUGACACGCAAAACGCGUGCUCCGUUGAAUGGAGUUUAUCAUG, the “polymerase ribozyme fitness (log ratio)” value rises from at most -4.2 to -3.09.

For GGAUCUUCUCGAUCUAACAAAAAAGACAAAUCUGCCACAAAGCUUGAGAGCAUCUUUGGAUGCAGAGGCGGCAGCCUUCGGUGGCGCGAUAGCGCCAACGUUCUCAACUAUGACACGCAAAACGCGUGCUCCGUGGAAUGGAGUUUAUCAUG, the “polymerase ribozyme fitness (log ratio)” value was -4.05.
